For one protein, unfolding free energy results are on record in FireProtDB (doi:10.1073/pnas.84.13.4441).

The conditions of this series: Escherichia coli (strain K12), 25 °C, GdnHCl, CD, Potassium phosphate 20 mM, reversible: yes, whole UniProt chain shown.

B1: Tryptophan synthase alpha chain wild type, P0A877 (protein)
chain: MERYESLFAQLKERKEGAFVPFVTLGDPGIEQSLKIIDTLIEAGADALELGIPFSDPLADGPTIQNATLRAFAAGVTPAQCFEMLALIRQKHPTIPIGLLMYANLVFNKGIDEFYAQCEKVGVDSVLVADVPVEESAPFRQAALRHNVAPIFICPPNADDDLLRQIASYGRGYTYLLSRAGVTGAENRAALPLNHLVAKLKEYNAAPPLQGFGISAPDQVKAAIDAGAAGAISGSAIVKIIEQHINEPEKMLAALKVFVQPMKAATRS
With B1, the unfolding free energy (pH 7) was 18.2 kcal/mol and the unfolding free energy (pH 9) is 18 kcal/mol.
